# Experiments:
# [1] = molecular target: T1, angiotensin converting enzyme-2 (ACE-2), full-length ACE-2 protein (UniProt Q9BYF1 18-740); assay: FITC-labeled ACIS (FIG. 4B)
# T1 construct: also called ACE-2 enzyme; ACE-2 receptor
# [2] = molecular target: T1, angiotensin converting enzyme-2 …; assay: fluorescence polarization; FITC-tagged ACIS peptide titrated with hACE-2
# T1 sequence (Q9BYF1 18-740 limits assumed): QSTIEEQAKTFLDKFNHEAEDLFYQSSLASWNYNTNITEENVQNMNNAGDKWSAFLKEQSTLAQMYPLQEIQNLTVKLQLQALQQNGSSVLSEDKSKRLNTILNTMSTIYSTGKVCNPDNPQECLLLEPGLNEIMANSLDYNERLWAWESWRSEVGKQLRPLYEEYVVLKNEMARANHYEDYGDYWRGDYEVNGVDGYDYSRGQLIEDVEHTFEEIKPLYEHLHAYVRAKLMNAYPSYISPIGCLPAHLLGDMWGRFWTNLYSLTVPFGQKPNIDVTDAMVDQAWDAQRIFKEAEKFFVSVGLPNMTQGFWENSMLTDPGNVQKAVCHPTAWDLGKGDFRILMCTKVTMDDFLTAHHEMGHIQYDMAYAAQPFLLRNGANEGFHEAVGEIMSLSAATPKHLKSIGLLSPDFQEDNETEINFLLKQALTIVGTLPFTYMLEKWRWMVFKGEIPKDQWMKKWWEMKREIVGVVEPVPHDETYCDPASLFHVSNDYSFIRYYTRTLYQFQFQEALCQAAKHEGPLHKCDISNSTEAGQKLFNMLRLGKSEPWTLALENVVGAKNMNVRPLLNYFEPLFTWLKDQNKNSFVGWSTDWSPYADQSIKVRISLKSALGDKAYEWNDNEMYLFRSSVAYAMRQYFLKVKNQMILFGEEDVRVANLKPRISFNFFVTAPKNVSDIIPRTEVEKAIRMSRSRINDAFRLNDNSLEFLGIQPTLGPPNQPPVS
binder,measurement,setting,value
"FQPTNGVGYQPYGK (FITC at the C-terminal end (on the C-terminal lysine tag according to paragraph 109), also called FITC-tagged ACIS peptide; FITC-labeled ACIS) [KEPTIDE2 (FITC tagged KEPTIDE; ACIS peptide tagged with FITC probe at C-terminal end)]",IC50,[1],24.5 nM
same,EC50 (read off the curve),[2],~6 nM
same,Kd,[2],6.38 nM

# Reference: patent US11078242 (SOTIRA COVID, dated 2021)
